Measurements reported in article PMC5897418, “A Synthesized Glucocorticoid- Induced Leucine Zipper Peptide Inhibits Retinal Müller Cell Gliosis” (Frontiers in Pharmacology, 2018).
No end group written: not given here.

Experiments:
Müller cells [1] = settings: 10 μM FITC-labeled GILZ-p, 15 min, serum-starved primary rat Müller cells, flow cytometry
Description: Müller cells were cultured on 6-well plates and starved in serum-free DMEM F12 for 24 h.
Müller cells were cultured on 6-well plates and starved in serum-free DMEM F12 for 24 h. […] Click here for additional data file.

Müller cells [2] = settings: 10 μM FITC-labeled GILZ-p, 6 and 12 h, confocal immunofluorescence
Description: Müller cells were cultured on 6-well plates and starved in serum-free DMEM F12 for 24 h. The cells were then treated with 10 μM fluorescein isothiocyanate (FITC)-labeled GILZ-p for 6 and 12 h, respectively. After treatment, the Müller cells were washed with PBS, fixed in 4% paraformaldehyde (Sigma-Aldrich Corp., St. Louis, MO, United States), and permeabilized in 0.1% Triton X-100 (Promega, Madison, WI, United States) for 10 min. The cells were counterstained with 4′6-diamidino-2-phenylindole (DAPI) (Sigma-Aldrich Corp.) and examined under a laser confocal microscope (Leica Microsystems, Wetzlar, Hesse-Darmstadt, Germany).

[3] = water and culture medium
Müller cells [4] = settings: 10, 50, 100, and 150 μM, 24 h, primary rat Müller cells, n = 6, compared with control group
Description: The viability of Müller cells was determined by the cell counting kit-8 (CCK-8) assay. Briefly, 0.5 × 10^5 cells per well were seeded in 96-well plates and allowed to attach overnight. Then, the culture media were replaced with fresh media containing different concentrations of GILZ-p (0, 10, 50, 100, and 150 μM). After 24 h, 10 μL CCK-8 (Dojindo, Kumamoto, Japan) solution was added to each well, and the plates were incubated for another 2 h. Measurements of optical density were obtained at a wavelength of 450 nm using a spectrophotometer.

[5] = target: nuclear factor (NF)-κB p65 (rat (endogenous in primary retinal …, UniProt Q7TQN4 1-550)); experiment: cell-based or functional assay
nuclear factor (NF)-κB p65 (rat, sequence (Q7TQN4 whole entry): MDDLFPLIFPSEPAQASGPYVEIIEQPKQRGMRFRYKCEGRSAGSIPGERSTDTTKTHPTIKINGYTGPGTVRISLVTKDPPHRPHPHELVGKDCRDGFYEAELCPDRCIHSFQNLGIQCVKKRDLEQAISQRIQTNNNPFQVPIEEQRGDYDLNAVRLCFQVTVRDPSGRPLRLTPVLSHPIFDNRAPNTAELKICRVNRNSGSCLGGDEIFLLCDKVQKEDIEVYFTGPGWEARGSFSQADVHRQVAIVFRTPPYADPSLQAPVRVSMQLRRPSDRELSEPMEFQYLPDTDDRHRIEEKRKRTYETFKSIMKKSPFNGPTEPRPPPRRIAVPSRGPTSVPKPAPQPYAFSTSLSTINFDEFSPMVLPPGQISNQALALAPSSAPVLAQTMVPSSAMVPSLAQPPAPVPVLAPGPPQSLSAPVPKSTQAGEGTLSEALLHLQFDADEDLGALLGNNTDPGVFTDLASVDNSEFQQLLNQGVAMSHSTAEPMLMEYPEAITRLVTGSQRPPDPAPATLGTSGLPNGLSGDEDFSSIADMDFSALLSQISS

Row | Molecule | Müller cells associated with GILZ-p (Müller cells [1]) | intracellular localisation of GILZ-p (Müller cells [2]) | solubility [3] | cytotoxicity (cell viability, CCK-8) (Müller cells [4]) | IC50 of GILZ-p (without the His tag) for inhibiting LPS-induced ICAM-1 expression in Müller cells (western blot, 24 h) [5] | IC50 of GILZ-p (without the His tag) for inhibiting LPS-induced IL-1β expression in Müller cells (western blot, 24 h) [5] | IC50 of GILZ-p (without the His tag) for inhibiting LPS-induced MCP-1 expression in Müller cells (western blot, 24 h) [5] | IC50 of GILZ-p (without the His tag) for inhibiting LPS-induced TNFα expression in Müller cells (western blot, 24 h) [5] | IC50 of GILZ-p (without the His tag) for inhibiting the LPS-induced downregulation of AQP4 in Müller cells (western blot, 24 h) [5] | IC50 of GILZ-p (without the His tag) for inhibiting the LPS-induced upregulation of GFAP in Müller cells (western blot, 24 h) [5]
1 | YGRKKRRQRRRKTLASPEQLEKFQSRLSPEEPAPEAPETPEAPGGSAV [GILZ-p] | about 7.92% | aggregated in the cytoplasm | water-soluble and fully dissolved in culture medium | no detectable toxicity | – | – | – | – | – | –
2 | YGRKKRRQRRRKTLASPEQLEKFQSRLSPEEPAPEAPETPEAPGGSAV [His-tag-GILZ-p (TAT-GILZ 98-134 peptide with a C-terminal 6x His tag)] | – | – | – | – | 7.13 µM | 8.93 µM | 5.82 µM | 8.77 µM | 2.32 µM | 11.2 µM
